Laboratory results published in patent publication US20150344570A1 (published 2015).

Experiments:
FcγRIIIa = molecular target: T1, FcγRIIIa (human, UniProt P08637 17-208); test: SPR (Biacore), antibody captured on antigen-peptide chip, FcγR as analyte; relative binding amount
T1 construct: extracellular domain; also called FcgRIIIa; CD16A; not shown: His tag attached to the C terminus
Procedure: Specifically, GpH7-TA7 and GpH7-TA45 (SEQ ID NO: 32) resulting from the introduction of L234Y, G236W, and S298A into GpH7-A5 and GpH7-B3, respectively, were prepared according to the method described in Reference Example 1. […] These antibodies were compared for the FcγRIIIa binding according to the method described in Reference Example 2 (Table 10).
(§1) Analysis of interaction between objective antibody and the FcγR was carried out using Biacore T100 (GE Healthcare). HBS-EP+ (GE Healthcare) was used as the running buffer, and the measurement temperature was set to 25° C. Chips produced by immobilizing the antigen peptide by the amine coupling method to a Series S Sencor Chip CM5 (GE Healthcare), or alternatively, chips produced by allowing preliminarily biotinylated antigen peptides to interact with and immobilize onto a Series S Sensor Chip SA (certified) (GE Healthcare) were used. Antibodies of interest were captured onto an antigen peptide-immobilized chip, and allowed to interact to each FcγR diluted with running buffer. To regenerate and repeatedly use the chip, the antibodies captured on the chip were washed off by reacting 10 mM glycine-HCl, pH 1.5.

FcgRIa = molecular target: T2, FcgRIa (human, UniProt P12314 16-292); test: SPR (Biacore); KD of GpH7-Kn033/GpH7-Hl033/GpL16-k0 for this FcγR divided by KD of this antibody
T2 construct: extracellular domain; also called FcγRIa; FcγRI
Procedure: (§2) These antibodies were assessed for the binding activity to each FcγR according to the method described in Reference Example 2.
as §1

FcgRIIa H = molecular target: T3, FcgRIIa H (human, UniProt P12318 34-217); test: as above
T3 construct: extracellular domain; also called FcγRIIa H; FcγRIIa type H
T3 sequence (looked up): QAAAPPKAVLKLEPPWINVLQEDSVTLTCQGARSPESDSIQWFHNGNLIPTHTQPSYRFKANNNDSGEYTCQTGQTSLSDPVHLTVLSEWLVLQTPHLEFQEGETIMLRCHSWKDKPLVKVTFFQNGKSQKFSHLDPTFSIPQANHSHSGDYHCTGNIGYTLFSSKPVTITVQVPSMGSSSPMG
Procedure: as §2, §1

FcgRIIa R = molecular target: T4, FcgRIIa R (human, UniProt P12318 34-217); test: as above
T4 construct: extracellular domain; also called FcγRIIa R; FcγRIIa type R
T4 sequence (looked up): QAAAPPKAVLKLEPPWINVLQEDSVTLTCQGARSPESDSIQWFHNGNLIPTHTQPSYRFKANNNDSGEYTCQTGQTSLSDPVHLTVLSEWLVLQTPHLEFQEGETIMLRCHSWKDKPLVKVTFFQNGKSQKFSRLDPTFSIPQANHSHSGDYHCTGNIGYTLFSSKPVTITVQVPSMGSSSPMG
Procedure: as §2, §1

FcgRIIb [1] = molecular target: T5, FcgRIIb (human, UniProt P31994 43-217); test: as above
T5 construct: extracellular domain; also called FcγRIIb; CD32B
T5 sequence (looked up): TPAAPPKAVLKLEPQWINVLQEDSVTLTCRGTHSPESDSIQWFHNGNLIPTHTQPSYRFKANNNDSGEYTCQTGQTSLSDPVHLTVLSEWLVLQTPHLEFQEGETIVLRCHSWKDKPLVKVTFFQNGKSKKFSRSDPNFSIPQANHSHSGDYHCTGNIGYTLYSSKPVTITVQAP
Procedure: as §2, §1

FcgRIIIa F = molecular target: T6, FcgRIIIa F (human, UniProt P08637 17-208); test: as above
T6 construct: extracellular domain; also called FcγRIIIa F; FcγRIIIaF
Procedure: as §2, §1

FcgRIIIa V = molecular target: T7, FcgRIIIa V (human, UniProt P08637 17-208); test: as above
T7 construct: extracellular domain; also called FcγRIIIa V; FcγRIIIaV
Procedure: as §2, §1

FcgRIIb [2] = molecular target: T8, FcgRIIb (human, UniProt P31994 43-217); test: SPR (Biacore); KD of the variant for FcgRIIaR divided by its KD for FcgRIIb
T8 construct: extracellular domain; Soluble extracellular domain with C-terminal His tag, expressed in FreeStyle293 cells; also called FcγRIIb; 2b; not shown: His tag at the C terminus
T8 sequence (looked up): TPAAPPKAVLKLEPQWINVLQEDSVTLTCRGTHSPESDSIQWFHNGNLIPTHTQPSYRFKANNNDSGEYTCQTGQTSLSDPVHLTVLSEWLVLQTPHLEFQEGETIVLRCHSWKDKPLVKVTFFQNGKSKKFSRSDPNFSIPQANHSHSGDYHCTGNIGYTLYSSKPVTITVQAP

FcgRIIb [3] = molecular target: T8, FcgRIIb; test: SPR (Biacore), antibody captured on chip, FcgR extracellular domain as analyte
FcgRIIaR = molecular target: T9, FcgRIIaR (human, UniProt P12318 34-217); test: as above
T9 construct: extracellular domain; Soluble extracellular domain with C-terminal His tag, expressed in FreeStyle293 cells; also called FcγRIIa R; FcgRIIa type R; not shown: His tag at the C terminus
T9 sequence (looked up): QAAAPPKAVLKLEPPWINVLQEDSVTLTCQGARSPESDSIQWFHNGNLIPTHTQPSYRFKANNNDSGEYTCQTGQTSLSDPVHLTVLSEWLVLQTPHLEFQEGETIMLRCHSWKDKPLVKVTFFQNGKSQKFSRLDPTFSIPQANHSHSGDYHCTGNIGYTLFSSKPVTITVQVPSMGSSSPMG

T7 sequence (P08637 17-208 F176V limits assumed): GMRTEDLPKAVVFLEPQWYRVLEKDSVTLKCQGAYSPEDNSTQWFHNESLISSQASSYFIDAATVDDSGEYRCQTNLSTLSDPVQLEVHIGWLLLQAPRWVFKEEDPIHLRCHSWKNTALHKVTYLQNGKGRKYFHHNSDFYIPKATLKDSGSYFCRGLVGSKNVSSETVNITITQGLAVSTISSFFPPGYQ
T1 sequence (P08637 17-208): as the sequence (P08637 17-208 F176V limits assumed) above, with V160F counted along it
T6 sequence (P08637 17-208): as the sequence (P08637 17-208 F176V limits assumed) above, with V160F counted along it
T2 sequence (P12314 16-292): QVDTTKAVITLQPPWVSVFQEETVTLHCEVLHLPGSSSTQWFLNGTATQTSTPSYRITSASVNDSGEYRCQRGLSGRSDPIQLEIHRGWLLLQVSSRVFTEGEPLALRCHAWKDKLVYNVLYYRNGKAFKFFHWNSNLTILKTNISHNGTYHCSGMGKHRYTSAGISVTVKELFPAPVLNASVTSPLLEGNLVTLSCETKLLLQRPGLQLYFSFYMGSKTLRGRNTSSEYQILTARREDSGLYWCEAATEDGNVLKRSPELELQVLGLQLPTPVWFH

B1: GpH7-A5/GpH7-TA45/GpL16-k0 (antibody, human IgG1, kappa)
heavy 1: not shown
heavy 2: QVQLVQSGAEVKKPGASVTVSCKASGYTFTDYEMHWIRQPPGEGLEWIGAIDPKTGDTAYSESFQDRVTLTADKSTSTAYMELSSLTSEDTAVYYCTRFYSYTYWGQGTLVTVSSASTKGPSVFPLAPSSKSTSGGTAALGCLVKDYFPEPVTVSWNSGALTSGVHTFPAVLQSSGLYSLSSVVTVPSSSLGTQTYICNVNHKPSNTKVDKKVEPKSCDKTHTCPPCPAPEYLWGPSVFLFPPKPKDTLMISRTPEVTCVVVDVSHEDPEVKFNWYVDGVEVHNAKTKPREEQYNATYRVVSVLTVLHQDWLNGKEYKCKVSNKALPAPIEKTISKAKGQPREPQVYTLPPSRDELTKNQVSLTCLVKGFYPSDIAVEWESNGQPENNYKTTPPVLDSDGSFFLYSKLTVDKSRWQQGNVFSCSVMHEALHNHYTQESLSLSP
light: DIVMTQSPLSLPVTPGEPASISCQASESLVHSNRNTYLHWYLQKPGQSPQLLIYKVSNRFSGVPDRFSGSGSGTDFTLKISRVEAEDVGVYYCSQNTHVPPTFGQGTKVEIERTVAAPSVFIFPPSDEQLKSGTASVVCLLNNFYPREAKVQWKVDNALQSGNSQESVTEQDSKDSTYSLSSTLTLSKADYEKHKVYACEVTHQGLSSPVTKSFNRGEC
notes: Anti-glypican-3 IgG1 heterodimer; L234Y/G236W/S298A in H2 only
FcγR BINDING ACTIVITY (relative FcγRIIIa binding) (FcγRIIIa): 225 relative, GpH7-A5/GpH7-B3/GpL16-k0 = 100

B2: GpH7-Kn056/GpH7-Hl055/GpL16-k0 (antibody, human IgG1, kappa)
heavy 1: QVQLVQSGAEVKKPGASVTVSCKASGYTFTDYEMHWIRQPPGEGLEWIGAIDPKTGDTAYSESFQDRVTLTADKSTSTAYMELSSLTSEDTAVYYCTRFYSYTYWGQGTLVTVSSASTKGPSVFPLAPSSKSTSGGTAALGCLVKDYFPEPVTVSWNSGALTSGVHTFPAVLQSSGLYSLSSVVTVPSSSLGTQTYICNVNHKPSNTKVDKKVEPKSCDKTHTCPPCPAPEYYAGPSVFLFPPKPKDTLMISRTPEVTCVVVDVSDEDPEVKFNWYVDGVEVHNAKTKPREELYNATYRVVSVLTVLHQDWLNGKEYKCKVSNKALPAPIEKTISKAKGQPREPQVCTLPPSRDELTKNQVSLWCLVKGFYPSDIAVEWESNGQPENNYKTTPPVLDSDGSFFLYSKLTVDKSRWQQGNVFSCSVMHEALHNHYTQKSLSLSP
heavy 2: QVQLVQSGAEVKKPGASVTVSCKASGYTFTDYEMHWIRQPPGEGLEWIGAIDPKTGDTAYSESFQDRVTLTADKSTSTAYMELSSLTSEDTAVYYCTRFYSYTYWGQGTLVTVSSASTKGPSVFPLAPSSKSTSGGTAALGCLVKDYFPEPVTVSWNSGALTSGVHTFPAVLQSSGLYSLSSVVTVPSSSLGTQTYICNVNHKPSNTKVDKKVEPKSCDKTHTCPPCPAPELLAGPDVFLFPPKPKDTLMISRTPEVTCVVVDVSHEDPEVKFNWYVDGVEVHNAKTKPREELYNSTYRVVSVLTVLHQDWLNGKEYKCKVSNKALPMPEEKTISKAKGQPREPQVYTLPPSRCELTKNQVSLSCAVKGFYPSDIAVEWESNGQPENNYKTTPPVLDSDGSFFLVSKLTVDKSRWQQGNVFSCSVMHEALHNHYTQKSLSLSP
light: DIVMTQSPLSLPVTPGEPASISCQASESLVHSNRNTYLHWYLQKPGQSPQLLIYKVSNRFSGVPDRFSGSGSGTDFTLKISRVEAEDVGVYYCSQNTHVPPTFGQGTKVEIERTVAAPSVFIFPPSDEQLKSGTASVVCLLNNFYPREAKVQWKVDNALQSGNSQESVTEQDSKDSTYSLSSTLTLSKADYEKHKVYACEVTHQGLSSPVTKSFNRGEC
notes: Heterodimerized antibody: knob chain L234Y/L235Y/G236A/H268D/Q295L/S298A, hole chain G236A/S239D/Q295L/A330M/I332E; also called Kn056/Hl055
KD ratio (FcgRIa): 2.9 fold
KD ratio (FcgRIIa H): 20 fold
KD ratio (FcgRIIa R): 44 fold
KD ratio (FcgRIIb [1]): 14 fold
KD ratio (FcgRIIIa F): 1110 fold
KD ratio (FcgRIIIa V): 327 fold

B3: IL6R-BP256/IL6R-L (antibody, human IgG1, kappa)
heavy: QVQLQESGPGLVKPSETLSLTCAVSGHSISHDHAWSWVRQPPGEGLEWIGFISYSGITNYNPSLQGRVTISRDNSKNTLYLQMNSLRAEDTAVYYCARSLARTTAMDYWGEGTLVTVSSASTKGPSVFPLAPSSKSTSGGTAALGCLVKDYFPEPVTVSWNSGALTSGVHTFPAVLQSSGLYSLSSVVTVPSSSLGTQTYICNVNHKPSNTKVDKKVEPKSCDKTHTCPPCPAPDLLGDDDVFLFPPKPKDTLMISRTPEVTCVVVDVSDEDGEVKFNWYVDGVEVHNAKTKPREEQYNSTYRVVSVLTVLHQDWLNGKEYKCKVSNKALPRPIEKTISKAKGQPREPQVYTLPPSRDELTKNQVSLTCLVKGFYPSDIAVEWESNGQPENNYKTTPPVLDSDGSFFLYSKLTVDKSRWQQGNVFSCSVMHEALHNHYTQESLSLSP
light: not shown
notes: Homodimerized antibody, S239D in both H chains
KD(IIaR)/KD(IIb) (FcgRIIb [2]): 8.4
Relative KD (KD of IL6R-B3/IL6R-L divided by KD of the variant) (FcgRIIb [3]): 35.7
Relative KD (KD of IL6R-B3/IL6R-L divided by KD of the variant) (FcgRIIaR): 1.5

B4: IL6R-BP257/IL6R-L (antibody, human IgG1, kappa)
heavy: QVQLQESGPGLVKPSETLSLTCAVSGHSISHDHAWSWVRQPPGEGLEWIGFISYSGITNYNPSLQGRVTISRDNSKNTLYLQMNSLRAEDTAVYYCARSLARTTAMDYWGEGTLVTVSSASTKGPSVFPLAPSSKSTSGGTAALGCLVKDYFPEPVTVSWNSGALTSGVHTFPAVLQSSGLYSLSSVVTVPSSSLGTQTYICNVNHKPSNTKVDKKVEPKSCDKTHTCPPCPAPDLLGDDEVFLFPPKPKDTLMISRTPEVTCVVVDVSDEDGEVKFNWYVDGVEVHNAKTKPREEQYNSTYRVVSVLTVLHQDWLNGKEYKCKVSNKALPRPIEKTISKAKGQPREPQVYTLPPSRDELTKNQVSLTCLVKGFYPSDIAVEWESNGQPENNYKTTPPVLDSDGSFFLYSKLTVDKSRWQQGNVFSCSVMHEALHNHYTQESLSLSP
light: not shown
notes: Homodimerized antibody, S239E in both H chains
KD(IIaR)/KD(IIb) (FcgRIIb [2]): 3
Relative KD (KD of IL6R-B3/IL6R-L divided by KD of the variant) (FcgRIIb [3]): 7.2
Relative KD (KD of IL6R-B3/IL6R-L divided by KD of the variant) (FcgRIIaR): 0.9
